Measurements as given in US20080118504A1 (University of California, published 2008).

B1: soluble MD-2 wild type (human MD-2 with C-terminal His-tag, from insect cells) (other)
chain: EAQKQYWVCNSSDASISYTYCDKMQYPISINVNPCIELKGSKGLLHIFYIPRRDLKQLYFNLYITVNTMNLPKRKEVICRGSDDDYSFCRALKGETVNTTISFSFKGIKFSKGKYKCVVEAISGSPEEMLFCLEFVILHQPNSN
notes: Expressed with the gp64 signal peptide in place of its own; The purified protein is a mixture of monomer and disulfide-linked oligomers; also called sMD-2; sMD-2 WT; not shown: C-terminal V5/His tag of the vector (pBlueBac4.5/V5-His or pBac11)
B2: soluble MD-2 alanine replacement mutant 127-131 (other)
chain: EAQKQYWVCNSSDASISYTYCDKMQYPISINVNPCIELKGSKGLLHIFYIPRRDLKQLYFNLYITVNTMNLPKRKEVICRGSDDDYSFCRALKGETVNTTISFSFKGIKFAAAAAKCVVEAISGSPEEMLFCLEFVILHQPNSN
notes: Expressed as a monomer; also called mutant SKGKY; not shown: C-terminal V5/His tag of the vector

Assays:
[1] = target: T1, TLR4 containing N-terminal HA-tag, stably transfected in CHO (EL1) cells (UniProt O00206 24-839, limits assumed); assay: FACS with anti-His and anti-HA on TLR4 transfected EL-1 (CHO) cells, receptor numbers from a microbead standard curve
T1 construct: whole, on cells; also called membrane TLR4; TLR4 transfected EL-1 cells; not shown: N-terminal HA-tag
Method: (§1) LPS activation increased with increasing MD-2 levels on the cell surface. TLR4 transfected EL-1 cells (a CHO cell line stably transfected with NF-κB/CD25 reporter plasmid) were incubated with various amount of soluble MD-2 for 20 min. The amount of soluble MD-2 that bound to TLR4 transfected cells as well as the TLR4 expression level were assayed by FACS analysis using antibody to His-tag and HA-tag, respectively. The MD-2 and TLR4 receptor numbers were calculated by converting mean channel number (MCN) of fluorescence intensity using the standard curve generated with Simply Cellular Microbeads. The cells were also activated with 100 ng/ml LPS and NF-κB activation assayed by FACS analysis of surface CD25 expression.
(§2) Various concentrations of sMD-2, plotted on the x-axis, was added to CHO (EL1) cells stably transfected with TLR4. The amount of TLR4 and MD-2 on the cell surface was analyzed by FACS using anti-HA tag and anti-His tag antibody, respectively. The receptor numbers plotted on the left Y-axis were calculated from mean channel number (MCN) and the standard curves generated by simply cellular microbeads. The cells were also activated with 100 ng/ml of LPS.

[2] = target: T1, TLR4 containing N-terminal HA-tag, …; assay: FACS with anti-His and anti-HA on TLR4 transfected EL-1 (CHO) cells, receptor numbers from a microbead standard curve; 0.5 nM sMD-2, 20 min
Method: as §1, §2

[3] = target: T1, TLR4 containing N-terminal HA-tag, …; assay: FACS with anti-His tag of purified sMD-2 on TLR4 transfected EL1 (CHO) cells
Method: To determine sMD-2 mutants binding to TLR4, the purified proteins were added to TLR4 transfected EL1 cells, washed off excess protein after 15 min or overnight incubation, stained with anti-His tag antibody and analyzed by FACS. FIG. 10 illustrates data showing LPS activation of sMD-2. TLR4 transfected CHO cells harboring CD25 reporter plasmids were activated with 100 ng/ml LPS in the absence and presence of 5 ug/ml of sMD-2 and the NF-κB activation was measured by FACS analysis of CD25 surface expression (MCN) using anti-CD25-PE. […] None of mutants with mostly oligomers remained in association to TLR4 cells after 16 hr. The unglycosylated MD-2 bound normally to TLR4 cells after 15 min but the binding was reduced after 16 hr.

T1 sequence (O00206 24-839 limits assumed): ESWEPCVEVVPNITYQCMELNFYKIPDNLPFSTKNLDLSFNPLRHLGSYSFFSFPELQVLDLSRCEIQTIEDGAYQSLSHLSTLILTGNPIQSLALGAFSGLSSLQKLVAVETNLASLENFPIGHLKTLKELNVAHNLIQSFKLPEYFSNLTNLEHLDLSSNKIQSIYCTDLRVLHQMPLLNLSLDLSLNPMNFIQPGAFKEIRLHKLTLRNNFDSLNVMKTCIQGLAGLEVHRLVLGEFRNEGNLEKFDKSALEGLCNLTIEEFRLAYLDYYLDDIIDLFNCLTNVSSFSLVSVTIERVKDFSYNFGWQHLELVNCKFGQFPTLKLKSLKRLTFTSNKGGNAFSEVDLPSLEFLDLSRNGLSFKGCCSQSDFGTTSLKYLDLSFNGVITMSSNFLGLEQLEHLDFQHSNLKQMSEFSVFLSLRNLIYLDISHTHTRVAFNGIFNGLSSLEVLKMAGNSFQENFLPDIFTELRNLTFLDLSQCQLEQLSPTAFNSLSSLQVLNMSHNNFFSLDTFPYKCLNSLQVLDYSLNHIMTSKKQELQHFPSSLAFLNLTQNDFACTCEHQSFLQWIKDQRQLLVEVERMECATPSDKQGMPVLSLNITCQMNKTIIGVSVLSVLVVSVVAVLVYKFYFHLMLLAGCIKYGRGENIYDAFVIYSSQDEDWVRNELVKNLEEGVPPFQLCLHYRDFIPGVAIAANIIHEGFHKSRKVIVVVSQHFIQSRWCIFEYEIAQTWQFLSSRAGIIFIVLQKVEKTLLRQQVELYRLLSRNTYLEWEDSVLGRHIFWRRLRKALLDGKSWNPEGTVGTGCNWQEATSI

| Binder | calculated ratio of MD-2 per TLR4 at maximal LPS activation [1] [MD-2 per TLR4] | calculated ratio of surface MD-2 per TLR4 [2] [MD-2 per TLR4] | binding result [3] |
| --- | --- | --- | --- |
| B1 | ~5 | 0.5 |  |
| B2 |  |  | no binding (tested: 1 or 5 µg/ml) |
